Literature values, collected in article PMC8894380.

Target: PRPF8 Jab1 (Saccharomyces cerevisiae) (UniProt P33334)
Sequence (P33334 2148-2395): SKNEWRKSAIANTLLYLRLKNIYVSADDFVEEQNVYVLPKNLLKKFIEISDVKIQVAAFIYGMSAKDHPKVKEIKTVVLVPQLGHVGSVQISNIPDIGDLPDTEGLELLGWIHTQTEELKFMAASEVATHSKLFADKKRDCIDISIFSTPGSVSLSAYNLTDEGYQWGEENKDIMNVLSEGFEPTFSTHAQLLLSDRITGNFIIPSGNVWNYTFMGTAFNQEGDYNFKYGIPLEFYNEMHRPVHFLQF

Chain of BRR2 helicase region (P32639 442-2163): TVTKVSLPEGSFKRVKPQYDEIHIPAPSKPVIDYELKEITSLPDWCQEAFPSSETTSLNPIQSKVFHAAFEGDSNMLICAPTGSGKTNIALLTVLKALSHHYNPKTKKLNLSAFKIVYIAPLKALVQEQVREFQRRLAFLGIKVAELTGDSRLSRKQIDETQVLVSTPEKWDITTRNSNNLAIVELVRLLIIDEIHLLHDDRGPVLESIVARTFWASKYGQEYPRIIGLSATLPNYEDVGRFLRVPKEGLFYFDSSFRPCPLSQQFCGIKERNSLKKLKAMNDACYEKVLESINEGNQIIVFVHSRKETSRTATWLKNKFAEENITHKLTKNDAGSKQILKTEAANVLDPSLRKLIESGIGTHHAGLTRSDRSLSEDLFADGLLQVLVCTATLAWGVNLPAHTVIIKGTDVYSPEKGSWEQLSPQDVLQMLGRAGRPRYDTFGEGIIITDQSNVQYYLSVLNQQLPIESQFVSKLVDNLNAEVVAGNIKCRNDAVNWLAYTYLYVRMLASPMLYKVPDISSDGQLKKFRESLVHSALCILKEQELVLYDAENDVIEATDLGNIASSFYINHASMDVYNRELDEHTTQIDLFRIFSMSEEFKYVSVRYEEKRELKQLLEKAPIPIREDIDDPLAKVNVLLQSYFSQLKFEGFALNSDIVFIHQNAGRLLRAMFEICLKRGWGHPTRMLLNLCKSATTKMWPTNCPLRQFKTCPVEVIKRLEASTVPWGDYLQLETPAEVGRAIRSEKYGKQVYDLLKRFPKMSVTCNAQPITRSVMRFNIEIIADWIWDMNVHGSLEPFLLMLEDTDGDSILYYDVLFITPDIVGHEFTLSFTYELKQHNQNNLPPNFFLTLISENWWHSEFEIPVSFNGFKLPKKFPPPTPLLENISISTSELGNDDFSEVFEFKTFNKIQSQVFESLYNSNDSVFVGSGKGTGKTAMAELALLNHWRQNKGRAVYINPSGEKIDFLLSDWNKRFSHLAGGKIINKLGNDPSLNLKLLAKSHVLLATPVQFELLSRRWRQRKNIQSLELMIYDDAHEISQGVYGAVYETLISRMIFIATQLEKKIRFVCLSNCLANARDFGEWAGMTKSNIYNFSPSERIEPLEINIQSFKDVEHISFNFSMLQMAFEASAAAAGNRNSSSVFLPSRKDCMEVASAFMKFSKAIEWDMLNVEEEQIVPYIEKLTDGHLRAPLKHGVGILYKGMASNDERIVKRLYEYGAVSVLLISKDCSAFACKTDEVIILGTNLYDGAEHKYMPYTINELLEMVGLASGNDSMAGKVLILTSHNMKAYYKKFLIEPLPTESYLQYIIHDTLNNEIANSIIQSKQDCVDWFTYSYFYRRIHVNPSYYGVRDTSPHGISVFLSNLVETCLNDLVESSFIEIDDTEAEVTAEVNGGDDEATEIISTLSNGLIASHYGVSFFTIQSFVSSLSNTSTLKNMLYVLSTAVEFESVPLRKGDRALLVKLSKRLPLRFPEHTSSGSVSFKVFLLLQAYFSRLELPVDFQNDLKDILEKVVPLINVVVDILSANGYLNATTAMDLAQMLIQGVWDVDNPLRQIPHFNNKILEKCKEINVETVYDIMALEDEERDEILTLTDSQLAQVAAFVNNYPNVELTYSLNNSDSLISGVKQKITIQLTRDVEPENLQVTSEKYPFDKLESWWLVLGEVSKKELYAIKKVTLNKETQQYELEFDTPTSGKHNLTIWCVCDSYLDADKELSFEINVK

BRR2 helicase region (from UniProt P32639)
Kd: 8 nM
